Experimental findings from patent US20230228751 (APTAMER DIAGNOSTICS LIMITED, published 2023) are described below.

Where a chain is given by its changes, count along the chain named.

Holding throughout (assay): BLI
(In general: In BLI a coated tip is dipped into the sample, and binding shifts an interference pattern.)

For data set [1], the target named is SARS-CoV-2 spike S1 subunit (SARS-CoV-2, UniProt P0DTC2 SEQ:1-670). The following applies: tags: His tag, SinoBiological 40591-V08B1; label: 5'-biotin.
The target of data set [2] is SARS-CoV-2 spike RBD (SARS-CoV-2, UniProt P0DTC2 SEQ:1-223). Particulars: tags: His tag, SinoBiological 40592-V08H.
Data set [3] deals with SARS-CoV spike S1 subunit (SARS-CoV, UniProt P59594 SEQ:14-667). The following applies: tags: SinoBiological.

B1: S1_A3-B (ssDNA)
DNA: CCAGTGTAGACTACTCAATGCCGATGGGTCGGGGGGGTGGGTAGGCATTGATCGCTCCTTTCGTACTATCCACAGGTCAACC
B1: the figures for the binding result in data set [1], in data set [2] (label: 5' biotin) and in data set [3] (label: 5'-biotin) were “binds”, “binds” and “no binding”, respectively.

B2: S1_A1-A (ssDNA)
DNA: B1 DNA with G34T, T61C
Take B2: the binding result in data set [1] is “binds”; in data set [2] (label: 5' biotin) it was “binds”; in data set [3] (label: 5' biotin), “no binding”.

B3: S1_B3 (ssDNA)
DNA: B1 DNA with C53T, G54C
For the molecule B3, the binding result was “binds” in data set [1], “binds” in data set [2] (label: 5' biotin) and “no binding” in data set [3] (label: 5' biotin).

B4: S1_C8 (ssDNA)
DNA: B1 DNA with G54A, C55T
As to B4, the binding result in data set [1] is on record as “binds”; in data set [2] (label: 5' biotin), “binds”; in data set [3] (label: 5'-biotin), “no binding”.

B5: S1_E5 (ssDNA)
DNA: CCAGTGTAGACTACTCAATGCCACCTCCTTTTCCGTTTCTTGTATCATGCTACTATCCTGTGTACTATCCACAGGTCAACC
Regarding B5, the binding result in data set [1] is on record as “no binding”; in data set [2] (label: 5'-biotin), “binds”; in data set [3] (label: 5' biotin) it was “no binding”.

B6: S1_A6_F13 (ssDNA)
DNA: AATGCTGTTATGACTTGACCTTGGGTTATGGGTTTGGGCGGGAGGGTACTATCCACAGGTCAACC
In the case of B6, in data set [1], the binding result is “binds”.

B7: S1_A3_F11 (ssDNA)
DNA: CCAGTGTAGACTACTCAATGCGTGGGAAGGGTGGGTGGGAGCATTGATAACTC
Regarding B7, the binding result in data set [1] was “binds”.

B8: S1_A8_F14 (ssDNA)
DNA: ACTTGATCCTGTGGTATATGGGTGGGAGGGTCGGGTACTATCCACAGGTCAAC
With B8, the binding result in data set [1] is listed as “binds”.

B9: S1_A12 (ssDNA)
DNA: CCAGTGTAGACTACTCAATGCCGTGTGGTGACCTTGATCCTGTGGTATATGGGTGGGAGGGGCGGGTACTATCCACAGGTCAACC
In the case of B9, the binding result in data set [1] is “binds”; in data set [2] (label: 5' biotin) it was “binds”; in data set [3] (label: 5' biotin) it was “no binding”.

B10: S1_A6_F14 (ssDNA)
DNA: ACTTGACCTTGGGTTATGGGTTTGGGCGGGAGGGTACTATCCACAGGTCAACC
As to B10, the binding result in data set [1] was “binds”.

In the case of ACTTGATCCTGTGGTATATGGGTGGGAGGGTCGGGT (ssDNA) [S1_A8_F20], the binding result in data set [1] is on record as “binds”.

As for CCAGTGTAGACTACTCAATGCGTGGGAAGGGTGGGTGGGA (ssDNA) [S1_A3_F9], the binding result in data set [1] is “binds”.

B11: S1_D6 (ssDNA)
DNA: CCAGTGTAGACTACTCAATGCTACTGACTCATCTGCCGAATCCAAACCCGACCAGTCCACGGTACTATCCACAGGTCAACC
Regarding B11, the results for the binding result in data set [1], in data set [2] (label: 5'-biotin) and in data set [3] (label: 5' biotin) were “no binding”, “binds” and “no binding”, respectively.

B12: S1_A8_F12 (ssDNA)
DNA: CCAGTGTAGACTACTCAATGCTGTGTTGACTTGATCCTGTGGTATATGGGTGGGAGGGTCGGGT
For the molecule B12, in data set [1], the binding result is reported as “binds”.

For the molecule GGTATATGGGTGGGAGGGTCGGGT (ssDNA) [S1_A8_F22], the binding result in data set [1] is reported as “binds”.

B13: S1_A8_F13 (ssDNA)
DNA: AATGCTGTGTTGACTTGATCCTGTGGTATATGGGTGGGAGGGTCGGGTACTATCCACAGGTCAAC
Turning to B13, the binding result in data set [1] is reported as “binds”.

B14: S1_A1-B (ssDNA)
DNA: CCAGTGTAGACTACTCAATGCGGCTGTGTGACTTGACCTCTGGATATGGGAGGGAGGGCGGGTACTATCCACAGGTCAACC
As for B14, the binding result in data set [1] is “binds”; in data set [2] (label: 5' biotin), “binds”; in data set [3] (label: 5' biotin) it was “no binding”.

B15: S1_E3 (ssDNA)
DNA: CCAGTGTAGACTACTCAATGCCGATGGGTCGGGTGGGTGGGTAGGCATTGATCGCTCCTCCGTACTATCCACAGGTCAACC
Take B15: the binding result in data set [1] is “binds”; in data set [2] (label: 5'-biotin) it was “binds”; in data set [3] (label: 5'-biotin), “no binding”.

B16: S1_B1 (ssDNA)
DNA: B15 DNA with C61A
Turning to B16, the binding result in data set [1] is on record as “binds”; in data set [2] (label: 5' biotin), “binds”; in data set [3] (label: 5' biotin), “no binding”.

B17: S1_A6_F12 (ssDNA)
DNA: CCAGTGTAGACTACTCAATGCTGTTATGACTTGACCTTGGGTTATGGGTTTGGGCGGGAGGGTA
In the case of B17, the binding result in data set [1] was “binds”.

B18: S1_A4 (ssDNA)
DNA: CCAGTGTAGACTACTCAATGCGTGGGAAGGGTGGGCGGGAGCATTGATAACTCGGAGGAGCGTACTATCCACAGGTCAACC
Regarding B18, the binding result in data set [1] is reported as “binds”; in data set [2] (label: 5' biotin), “binds”; in data set [3] (label: 5' biotin) it was “no binding”.

B19: S1_C1-A (ssDNA)
DNA: CCAGTGTAGACTACTCAATGCTGTGTTGACTTGATCCTGTGGTATTTGGGTGGGAGGGGCGGGTACTATCCACAGGTCAACC
In the case of B19, the binding result in data set [1] is listed as “binds”; in data set [2] (label: 5' biotin), “binds”; in data set [3] (label: 5'-biotin), “no binding”.

B20: S1_B12-B (ssDNA)
DNA: B19 DNA with T46A, G59A, C60T
Take B20: the binding result in data set [1] is on record as “no binding”; in data set [2] (label: 5'-biotin), “binds”; in data set [3] (label: 5' biotin) it was “no binding”.

With CCAGTGTAGACTACTCAATGCGTGGGAAGGGTGGGTGGGAGCATTGAT (ssDNA) [S1_A3_F10], the binding result in data set [1] is recorded as “binds”.

B21: S1_C3-A (ssDNA)
DNA: CCAGTGTAGACTACTCAATGCTGTGTTGACTTGATCCTGTGGCATATGGGTGGGAGGGCGGGTACTATCCACAGGTCAACC
In the case of B21, the binding result in data set [1] is reported as “no binding”; in data set [2] (label: 5'-biotin), “binds”; in data set [3] (label: 5' biotin) it was “no binding”.

B22: S1_B9 (ssDNA)
DNA: B21 DNA with C43T
Turning to B22, the binding result is recorded as “binds” in data set [1], “binds” in data set [2] (label: 5' biotin) and “no binding” in data set [3] (label: 5' biotin).

B23: S1_B4 (ssDNA)
DNA: B21 DNA with C43T, C59A
Consider B23, for which the results for the binding result in data set [1], in data set [2] (label: 5' biotin) and in data set [3] (label: 5' biotin) were “binds”, “binds” and “no binding”, respectively.

B24: S1_A9 (ssDNA)
DNA: CCAGTGTAGACTTACACCTGCAGTGTTCACGAGGGCCGGCGGTATATGGGCGGTTGATACGAGTACTATCCACAGGTCAACC
Turning to B24, the values for the binding result in data set [1], in data set [2] (label: 5' biotin) and in data set [3] (label: 5' biotin) were “binds”, “binds” and “no binding”, respectively.

B25: S1_D11-B (ssDNA)
DNA: CCAGTGTAGACTACTCAATGCCGGCCGGGAGGGAGGGGTGGGTAAAGCCGCGCAACATATAGTACTATCCACAGGTCAACC
For the molecule B25, the binding result in data set [1], in data set [2] (label: 5'-biotin) and in data set [3] (label: 5'-biotin) was “binds” in each case.

B26: S1_A3_F12 (ssDNA)
DNA: CCAGTGTAGACTACTCAATGCGTGGGAAGGGTGGGTGGGAGCATTGATAACTCGGAGGAGTGTA
On to B26, for which, in data set [1], the binding result is listed as “binds”.

In the case of GTATATGGGTGGGAGGGTCGGGTACTATCCACAGGTCAAC (ssDNA) [S1_A8_F2], the binding result in data set [1] is “binds”.

B27: S1_E6 (ssDNA)
DNA: CCAGTGTAGACTACTCAATGCCCAGTGGCGAGCGACTTTTTATGTAAGAACATCGATTTTCCATGGTACTATCCACAGGTCAACC
B27: the binding result is listed as “no binding” in data set [1], “binds” in data set [2] (label: 5'-biotin) and “no binding” in data set [3] (label: 5' biotin).

For AATGCGTGGGAAGGGTGGGTGGGAG (ssDNA) [S1_A3_F17], the binding result in data set [1] is reported as “binds”.
